Reference: article PMC10858482

Legend:
[1] = molecular target: MP-3fc (miniACE2-(GGGGS)3-coiled-coil, trivalent); assay: SEC
[2] = molecular target: MP-3ff (miniACE2-(GGGGS)3-foldon, trivalent) (bacteriophage T4); assay: SEC
[3] = molecular target: MP-3rc (miniACE2-(EAAAK)3-coiled-coil, trivalent); assay: SEC
[4] = molecular target: MP-3rf (miniACE2-(EAAAK)3-foldon, trivalent) (bacteriophage T4); assay: SEC
[5] = molecular target: MP-5fc (miniACE2-(GGGGS)5-coiled-coil, trivalent); assay: SEC
[6] = molecular target: MP-5ff (miniACE2-(GGGGS)5-foldon, trivalent) (bacteriophage T4); assay: SEC
[7] = molecular target: RBD of the S protein of SARS-CoV-2 (Wuhan-Hu-1) (SARS-CoV-2 (Wuhan-Hu-1)) (UniProt P0DTC2); assay: BLI; Octet RED96e; RBD (Wuhan-Hu-1) immobilised on HIS1K biosensors; analyte 50-3.125 nM miniACE2 or 100-3.125 nM MP-5ff in 1x PBS, 0.02% Tween-20, 0.1% BSA; association 1 min, dissociation 3 min; 1:1 binding model
[8] = molecular target: MP-5rc (miniACE2-(EAAAK)5-coiled-coil, trivalent); assay: SEC
[9] = molecular target: MP-5rf (miniACE2-(EAAAK)5-foldon, trivalent) (bacteriophage T4); assay: SEC

“MP-3fc (miniACE2-(GGGGS)3-coiled-coil, trivalent) (designed binder)” showed a stoichiometry N [1] of 3.
“MP-3ff (miniACE2-(GGGGS)3-foldon, trivalent) (designed binder)” gave a stoichiometry N [2] of 3.
With “MP-3rc (miniACE2-(EAAAK)3-coiled-coil, trivalent) (designed binder)” the stoichiometry N [3] was 3.
Substance “MP-3rf (miniACE2-(EAAAK)3-foldon, trivalent) (designed binder)” has a stoichiometry N [4] of 3.
“MP-5fc (miniACE2-(GGGGS)5-coiled-coil, trivalent) (designed binder)” showed a stoichiometry N [5] of 3.
“MP-5ff (miniACE2-(GGGGS)5-foldon, trivalent) (designed binder)” was tested, and the stoichiometry N [6] was 3, the Kd [7] was under 0.001 nM and the koff [7] was under 1e-07 s⁻¹.
With “MP-5rc (miniACE2-(EAAAK)5-coiled-coil, trivalent) (designed binder)” the stoichiometry N [8] was 3.
In the case of “MP-5rf (miniACE2-(EAAAK)5-foldon, trivalent) (designed binder)”, the stoichiometry N [9] is reported as 3.
“miniACE2 (microprotein LCB3) (designed binder)” showed a Kd [7] of 1.03 nM and a koff [7] of 0.000986 s⁻¹.
